This is an account of results in patent US7090848.

Targets include CCR1 (UniProt P32246); CCR3 (UniProt P51677); CCR4 (UniProt P51679); CCR5 (UniProt P51681); CXCR4 (UniProt P61073).
Common to all, as to assay: cell-based or functional assay

Sequence of UniProt P51681 (P51681 whole entry): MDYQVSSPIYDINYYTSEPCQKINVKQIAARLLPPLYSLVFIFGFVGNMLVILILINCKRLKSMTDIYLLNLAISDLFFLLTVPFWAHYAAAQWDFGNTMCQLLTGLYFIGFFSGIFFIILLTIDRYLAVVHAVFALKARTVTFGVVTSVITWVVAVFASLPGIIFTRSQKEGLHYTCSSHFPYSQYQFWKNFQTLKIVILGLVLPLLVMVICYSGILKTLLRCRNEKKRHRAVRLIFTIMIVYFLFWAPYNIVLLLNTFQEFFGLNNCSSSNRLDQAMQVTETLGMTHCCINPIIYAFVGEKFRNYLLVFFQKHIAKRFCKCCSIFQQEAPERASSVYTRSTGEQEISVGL
Sequence of UniProt P51677 (P51677 whole entry): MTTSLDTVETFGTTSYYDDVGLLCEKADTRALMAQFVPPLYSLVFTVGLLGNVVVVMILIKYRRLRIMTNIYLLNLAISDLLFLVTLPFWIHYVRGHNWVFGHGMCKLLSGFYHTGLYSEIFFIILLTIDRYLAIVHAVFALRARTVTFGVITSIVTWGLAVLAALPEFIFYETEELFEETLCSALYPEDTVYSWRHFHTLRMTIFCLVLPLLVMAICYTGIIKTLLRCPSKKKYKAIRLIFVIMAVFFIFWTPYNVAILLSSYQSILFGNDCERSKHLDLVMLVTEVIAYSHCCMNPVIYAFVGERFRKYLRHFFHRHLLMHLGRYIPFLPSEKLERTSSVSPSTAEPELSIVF
Sequence of UniProt P51679 (P51679 whole entry): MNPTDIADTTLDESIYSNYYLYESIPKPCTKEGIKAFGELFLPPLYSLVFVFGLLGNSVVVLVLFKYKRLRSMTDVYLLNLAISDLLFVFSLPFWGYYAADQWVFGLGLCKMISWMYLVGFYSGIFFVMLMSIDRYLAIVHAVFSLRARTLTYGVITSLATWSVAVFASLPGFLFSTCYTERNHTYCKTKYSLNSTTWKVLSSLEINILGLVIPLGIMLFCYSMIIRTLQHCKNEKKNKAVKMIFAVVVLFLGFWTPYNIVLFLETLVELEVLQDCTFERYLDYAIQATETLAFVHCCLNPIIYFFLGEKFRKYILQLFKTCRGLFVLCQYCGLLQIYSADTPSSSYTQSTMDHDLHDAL
Sequence of UniProt P32246 (P32246 whole entry): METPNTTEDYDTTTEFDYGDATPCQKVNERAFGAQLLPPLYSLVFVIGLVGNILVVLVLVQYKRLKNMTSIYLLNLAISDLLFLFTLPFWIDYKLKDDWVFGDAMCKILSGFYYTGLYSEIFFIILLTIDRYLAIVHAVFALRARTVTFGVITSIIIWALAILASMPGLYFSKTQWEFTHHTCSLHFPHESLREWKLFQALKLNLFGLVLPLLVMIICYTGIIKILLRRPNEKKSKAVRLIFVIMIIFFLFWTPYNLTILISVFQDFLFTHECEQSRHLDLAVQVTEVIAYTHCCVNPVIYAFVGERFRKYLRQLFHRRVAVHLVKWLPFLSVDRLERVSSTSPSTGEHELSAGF
Sequence of UniProt P61073 (P61073 whole entry): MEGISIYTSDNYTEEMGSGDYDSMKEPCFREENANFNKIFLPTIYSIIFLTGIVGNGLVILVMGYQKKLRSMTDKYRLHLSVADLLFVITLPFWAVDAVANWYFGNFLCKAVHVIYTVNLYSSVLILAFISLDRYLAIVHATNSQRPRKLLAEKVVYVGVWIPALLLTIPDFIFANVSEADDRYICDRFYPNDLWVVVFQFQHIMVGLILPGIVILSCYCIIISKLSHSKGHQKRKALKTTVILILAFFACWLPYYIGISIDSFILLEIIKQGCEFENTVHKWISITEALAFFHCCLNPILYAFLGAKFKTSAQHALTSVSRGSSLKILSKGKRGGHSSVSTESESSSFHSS

Turning to HIV-1 AD8 envelope, the Infectivity Titer In HOS-CD4 Cells Expressing CCR1 with CCR1 was < 4 titer (1:x). Further, the Infectivity Titer In HOS-CD4 Cells Expressing CCR3 in the assay with CCR3 was < 4 titer (1:x). Further, the Infectivity Titer In HOS-CD4 Cells Expressing CCR4 in the assay with CCR4 is < 4 titer (1:x). Moreover, the Infectivity Titer In HOS-CD4 Cells Expressing CCR5 with CCR5 was 256 titer (1:x). Besides, the Infectivity Titer In HOS-CD4 Cells Expressing CXCR4 with CXCR4 was < 4 titer (1:x).

HIV-1 NL4-3 envelope: the Infectivity Titer In HOS-CD4 Cells Expressing CCR1 in the assay with CCR1 was < 4 titer (1:x). For the same substance, the Infectivity Titer In HOS-CD4 Cells Expressing CCR3 in the assay with CCR3 is < 4 titer (1:x). For the same substance, in the assay with CCR4, the Infectivity Titer In HOS-CD4 Cells Expressing CCR4 is < 4 titer (1:x). The Infectivity Titer In HOS-CD4 Cells Expressing CCR5 with CCR5 is 32 titer (1:x). The Infectivity Titer In HOS-CD4 Cells Expressing CXCR4 with CXCR4 is > 256 titer (1:x).
